# Source: patent US20180155451A1 (published 2018)
# T1: FcγRIIa H (human, UniProt P12318 34-217)
# T1 construct: extracellular domain; also called FcgRIIa H; FcγRIIa type H; not shown: His tag attached to the C terminus
# T1 sequence (looked up): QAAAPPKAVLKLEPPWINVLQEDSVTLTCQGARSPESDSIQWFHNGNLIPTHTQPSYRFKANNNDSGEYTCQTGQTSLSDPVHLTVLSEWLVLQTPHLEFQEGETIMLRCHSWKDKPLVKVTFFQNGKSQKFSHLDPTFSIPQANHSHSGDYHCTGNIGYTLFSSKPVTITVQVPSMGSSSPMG
# T2: FcγRIIb extracellular domain with C-terminal His tag (human, UniProt P31994 43-217)
# T2 construct: extracellular domain; also called 2b; FcgRIIb
# T2 sequence (looked up): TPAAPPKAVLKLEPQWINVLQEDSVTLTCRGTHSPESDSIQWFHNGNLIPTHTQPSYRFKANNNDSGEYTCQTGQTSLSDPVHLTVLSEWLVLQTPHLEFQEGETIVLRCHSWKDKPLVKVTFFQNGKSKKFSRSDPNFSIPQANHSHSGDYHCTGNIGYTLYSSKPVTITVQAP
# T3: FcγRIIb (human, UniProt P31994 43-217)
# T3 construct: extracellular domain; also called FcgRIIb; 2b; not shown: His tag attached to the C terminus
# T3 sequence (looked up): T2 sequence (looked up)
# B1: GpH7-A5/GpH7-B3 variant G236_13S/GpL16-k0 (antibody, human IgG1, kappa)
# heavy 1: not shown
# heavy 2: not shown
# light: DIVMTQSPLSLPVTPGEPASISCQASESLVHSNRNTYLHWYLQKPGQSPQLLIYKVSNRFSGVPDRFSGSGSGTDFTLKISRVEAEDVGVYYCSQNTHVPPTFGQGTKVEIERTVAAPSVFIFPPSDEQLKSGTASVVCLLNNFYPREAKVQWKVDNALQSGNSQESVTEQDSKDSTYSLSSTLTLSKADYEKHKVYACEVTHQGLSSPVTKSFNRGEC
# notes: Heterodimerized IgG1, mutation in the GpH7-B3 chain only; also called He Ab
# B2: GpH7-A5/GpH7-B3 variant G236_19Q/GpL16-k0 (antibody, human IgG1, kappa)
# heavy 1: not shown
# heavy 2: not shown
# light: B1 light
# notes: as for B1
# B3: GpH7-A5/GpH7-B3 variant L234_13S/GpL16-k0 (antibody, human IgG1, kappa)
# heavy 1: not shown
# heavy 2: not shown
# light: B1 light
# notes: as for B1
# B4: GpH7-A5/GpH7-B3 variant L235_14T/GpL16-k0 (antibody, human IgG1, kappa)
# heavy 1: not shown
# heavy 2: not shown
# light: B1 light
# notes: as for B1
# B5: GpH7-A5/GpH7-B3 variant L234_19Q/GpL16-k0 (antibody, human IgG1, kappa)
# heavy 1: not shown
# heavy 2: not shown
# light: B1 light
# notes: as for B1
# B6: GpH7-A5/GpH7-B3 variant L235_13S/GpL16-k0 (antibody, human IgG1, kappa)
# heavy 1: not shown
# heavy 2: not shown
# light: B1 light
# notes: as for B1
# B7: GpH7-A5/GpH7-B3 variant S239_11K/GpL16-k0 (antibody, human IgG1, kappa)
# heavy 1: not shown
# heavy 2: not shown
# light: B1 light
# notes: as for B1
# B8: GpH7-A5/GpH7-B3 variant L234_14T/GpL16-k0 (antibody, human IgG1, kappa)
# heavy 1: not shown
# heavy 2: not shown
# light: B1 light
# notes: as for B1
# B9: GpH7-A5/GpH7-B3 variant L235_01G/GpL16-k0 (antibody, human IgG1, kappa)
# heavy 1: not shown
# heavy 2: not shown
# light: B1 light
# notes: as for B1
# B10: GpH7-A5/GpH7-B3 variant L234_12R/GpL16-k0 (antibody, human IgG1, kappa)
# heavy 1: not shown
# heavy 2: not shown
# light: B1 light
# notes: as for B1
# B11: GpH7-A5/GpH7-B3 variant L234_15Y/GpL16-k0 (antibody, human IgG1, kappa)
# heavy 1: not shown
# heavy 2: not shown
# light: B1 light
# notes: as for B1
# B12: GpH7-A5/GpH7-B3 variant L234_16H/GpL16-k0 (antibody, human IgG1, kappa)
# heavy 1: not shown
# heavy 2: not shown
# light: B1 light
# notes: as for B1
# B13: GpH7-A5/GpH7-B3 variant L234_02A/GpL16-k0 (antibody, human IgG1, kappa)
# heavy 1: not shown
# heavy 2: not shown
# light: B1 light
# notes: as for B1
# B14: GpH7-A5/GpH7-B3 variant G236_15Y/GpL16-k0 (antibody, human IgG1, kappa)
# heavy 1: not shown
# heavy 2: not shown
# light: B1 light
# notes: as for B1
# B15: GpH7-A5/GpH7-B3 variant L235_11K/GpL16-k0 (antibody, human IgG1, kappa)
# heavy 1: not shown
# heavy 2: not shown
# light: B1 light
# notes: as for B1
# B16: GpH7-A5/GpH7-B3 variant L234_05P/GpL16-k0 (antibody, human IgG1, kappa)
# heavy 1: not shown
# heavy 2: not shown
# light: B1 light
# notes: as for B1
# B17: GpH7-A5/GpH7-B3 variant S239_16H/GpL16-k0 (antibody, human IgG1, kappa)
# heavy 1: not shown
# heavy 2: not shown
# light: B1 light
# notes: as for B1
# B18: GpH7-A5/GpH7-B3 variant L235_03V/GpL16-k0 (antibody, human IgG1, kappa)
# heavy 1: not shown
# heavy 2: not shown
# light: B1 light
# notes: as for B1
# B19: GpH7-A5/GpH7-B3 variant L234_04F/GpL16-k0 (antibody, human IgG1, kappa)
# heavy 1: not shown
# heavy 2: not shown
# light: B1 light
# notes: as for B1
# B20: GpH7-A5/GpH7-B3 variant S239_12R/GpL16-k0 (antibody, human IgG1, kappa)
# heavy 1: not shown
# heavy 2: not shown
# light: B1 light
# notes: as for B1
# B21: GpH7-A5/GpH7-B3 variant G236_16H/GpL16-k0 (antibody, human IgG1, kappa)
# heavy 1: not shown
# heavy 2: not shown
# light: B1 light
# notes: as for B1
# B22: GpH7-A5/GpH7-B3 variant L235_19Q/GpL16-k0 (antibody, human IgG1, kappa)
# heavy 1: not shown
# heavy 2: not shown
# light: B1 light
# notes: as for B1
# B23: GpH7-A5/GpH7-B3 variant L234_01G/GpL16-k0 (antibody, human IgG1, kappa)
# heavy 1: not shown
# heavy 2: not shown
# light: B1 light
# notes: as for B1
# B24: GpH7-A5/GpH7-B3 variant G236_14T/GpL16-k0 (antibody, human IgG1, kappa)
# heavy 1: not shown
# heavy 2: not shown
# light: B1 light
# notes: as for B1
# B25: GpH7-A5/GpH7-B3 variant L235_18N/GpL16-k0 (antibody, human IgG1, kappa)
# heavy 1: not shown
# heavy 2: not shown
# light: B1 light
# notes: as for B1
# B26: GpH7-A5/GpH7-B3 variant L234_11K/GpL16-k0 (antibody, human IgG1, kappa)
# heavy 1: not shown
# heavy 2: not shown
# light: B1 light
# notes: as for B1
# B27: GpH7-A5/GpH7-B3 variant G236_20W/GpL16-k0 (antibody, human IgG1, kappa)
# heavy 1: not shown
# heavy 2: not shown
# light: B1 light
# notes: as for B1
# B28: GpH7-A5/GpH7-B3 variant E269_01G/GpL16-k0 (antibody, human IgG1, kappa)
# heavy 1: not shown
# heavy 2: not shown
# light: B1 light
# notes: He Ab: alteration in one H chain only; also called He Ab
# B29: GpH7-A5/GpH7-B3 variant L235_12R/GpL16-k0 (antibody, human IgG1, kappa)
# heavy 1: not shown
# heavy 2: not shown
# light: B1 light
# notes: as for B28
# Molecular target: T1, FcγRIIa H
# Assay: ratio of He/Con_2aH to He/Con_2b (relative SPR binding to FcγRIIa H over FcγRIIb)
row,Binder,He_2aH/2b (IIaH/IIb)
1,B1,1.39
2,B2,1.91
3,B3,1.36
4,B4,1.53
5,B5,1.31
6,B6,1.37
7,B7,1.94
8,B8,1.25
9,B9,1.53
10,B10,2.53
11,B11,1.25
12,B12,1.47
13,B13,1.25
14,B14,3.45
15,B15,3.61
16,B16,1.28
17,B17,1.2
18,B18,1.28
19,B19,1.2
20,B20,1.46
21,B21,3.51
22,B22,1.45
23,B23,1.49
24,B24,1.79
25,B25,1.2
26,B26,2.52
27,B27,2.52

# Molecular target: T2, FcγRIIb extracellular domain with …
# Assay: SPR, relative to GpH7-A5/GpH7-B3/GpL16-k0
# Method: (§1) The heterodimerized antibodies He Abs in which one of the H chains was introduced with an alteration were assayed for their binding activities to each activating FcγR and inhibitory FcγR according to the method described in Example 4. […] The activating FcγRs in FIGS. 26, 27, 28, and 29 are FcγRIa, FcγRIIa (R), FcγRIIa (H), and FcγRIIIa, respectively.
# (§2) Analysis of interaction between objective antibody and the FcγR was carried out using Biacore T100 (GE Healthcare). HBS-EP+ (GE Healthcare) was used as the running buffer, and the measurement temperature was set to 25° C. Chips produced by immobilizing the antigen peptide by the amine coupling method to a Series S Sencor Chip CM5 (GE Healthcare), or alternatively, chips produced by allowing preliminarily biotinylated antigen peptides to interact with and immobilize onto a Series S Sensor Chip SA (certified) (GE Healthcare) were used. Antibodies of interest were captured onto an antigen peptide-immobilized chip, and allowed to interact to each FcγR diluted with running buffer. To regenerate and repeatedly use the chip, the antibodies captured on the chip were washed off by reacting 10 mM glycine-HCl, pH 1.5.
row,Binder,He/Con_2b
1,B28,51.5 control=100

# Molecular target: T4, FcγRIIIa extracellular domain with C-terminal His tag (human, UniProt P08637 17-208)
# T4 construct: extracellular domain; also called 3a; FcgRIIIa
# Assay: SPR, relative to GpH7-A5/GpH7-B3/GpL16-k0
# Method: as §1, §2
# T4 sequence (P08637 17-208): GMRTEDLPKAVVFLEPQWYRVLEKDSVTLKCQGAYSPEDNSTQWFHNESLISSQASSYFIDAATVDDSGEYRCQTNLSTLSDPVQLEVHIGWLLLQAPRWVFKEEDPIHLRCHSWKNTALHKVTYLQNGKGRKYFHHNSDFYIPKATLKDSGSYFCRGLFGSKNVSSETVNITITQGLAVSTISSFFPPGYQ
row,Binder,He/Con_3a
1,B28,62.2 control=100
2,B29,41.2 control=100

# Molecular target: T4, FcγRIIIa extracellular domain with …
# Assay: SPR; He/Con_3a over He/Con_2b (FcγRIIb)
row,Binder,He_3a/2b (IIIa/IIb)
1,B28,1.21 ratio
2,B29,4.29 ratio

# Molecular target: T3, FcγRIIb
# Assay: SPR (Biacore), antibody captured, FcγR as analyte; binding relative to GpH7-A5/GpH7-B3/GpL16-k0 = 100
row,Binder,He/Con_2b
1,B1,96.7 control = 100
2,B2,46.6 control = 100
3,B3,59.3 control = 100
4,B4,46.8 control = 100
5,B5,60.3 control = 100
6,B6,48.2 control = 100
7,B7,24.7 control = 100
8,B8,62.5 control = 100
9,B9,35.4 control = 100
10,B10,18.9 control = 100
11,B11,96.3 control = 100
12,B12,59.4 control = 100
13,B13,64.9 control = 100
14,B14,39.5 control = 100
15,B15,6.3 control = 100
16,B16,72.9 control = 100
17,B17,49.4 control = 100
18,B18,66.4 control = 100
19,B19,99.8 control = 100
20,B20,39.1 control = 100
21,B21,27.9 control = 100
22,B22,42.6 control = 100
23,B23,50.7 control = 100
24,B24,57.8 control = 100
25,B25,54.9 control = 100
26,B26,16.2 control = 100
27,B27,58.2 control = 100

# Molecular target: T1, FcγRIIa H
# Assay: as above
row,Binder,He/Con_2aH
1,B1,135 control = 100
2,B2,89.1 control = 100
3,B3,80.4 control = 100
4,B4,71.5 control = 100
5,B5,79.2 control = 100
6,B6,66.1 control = 100
7,B7,48.1 control = 100
8,B8,78.1 control = 100
9,B9,54.1 control = 100
10,B10,47.7 control = 100
11,B11,120 control = 100
12,B12,87.3 control = 100
13,B13,81 control = 100
14,B14,136 control = 100
15,B15,22.7 control = 100
16,B16,93.5 control = 100
17,B17,59.4 control = 100
18,B18,85.3 control = 100
19,B19,120 control = 100
20,B20,57.1 control = 100
21,B21,98.2 control = 100
22,B22,62 control = 100
23,B23,75.6 control = 100
24,B24,103 control = 100
25,B25,66.1 control = 100
26,B26,40.8 control = 100
27,B27,147 control = 100
